Target: T1, CD3 epsilon homodimer protein (UniProt P07766 23-126)
T1 construct: also called CD3 (CD3 epsilon)
Assay: SPR, CD3e homodimer on chip;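 also: surface plasmon resonance at 25 degrees C, antibodies flowed as analyte over CD3 epsilon homodimer amine-coupled to a CM4 chip, running buffer HBS-EP+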

T1 sequence (P07766 23-126): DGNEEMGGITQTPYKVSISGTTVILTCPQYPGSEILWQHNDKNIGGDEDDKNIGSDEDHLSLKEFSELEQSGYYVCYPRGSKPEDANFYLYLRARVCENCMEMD

Binder | ratio of amounts bound (altered form / unaltered GLS3000 antibody)
GLS3000 N28E one-arm antibody (H chain CE115HA000) (antibody, human IgG1, kappa, L234A L235A, N297A, name in Kabat numbering, one-arm antibody) heavy: QVQLVESGGGVVQPGRSLRLSCAASGFTFSNAWMHWVRQAPGKGLEWVAQIKAKSNNYATYYAESVKGRFTISRDDSKNSLYLQMNSLKTEDTAVYYCRYVHYGAYYGVDAWGQGTTVTVSSASTKGPSVFPLAPSSKSTSGGTAALGCLVKDYFPEPVTVSWNSGALTSGVHTFPAVLQSSGLYSLSSVVTVPSSSLGTQTYICNVNHKPSNTKVDKKVEPKSCDKTHTCPPCPAPEAAGGPSVFLFPPKPKDTLMISRTPEVTCVVVDVSHEDPEVKFNWYVDGVEVHNAKTKPREEQYASTYRVVSVLTVLHQDWLNGKEYKCKVSNKALPAPIEKTISKAKGQPREPQVYTLPPSRCELTKNQVSLSCAVKGFYPSDIAVEWESNGQPENNYKTTPPVLDSDGSFFLVSKLTVDKSRWQQGNVFSCSVMHEALHNHYTQKSLSLSPDYKDDDDK EPKSSDKTHTCPPCPAPELLGGPSVFLFPPKPKDTLMISRTPEVTCVVVDVSHEDPEVKFNWYVDGVEVHNAKTKPREEQYNSTYRVVSVLTVLHQDWLNGKEYKCKVSNKALPAPIEKTISKAKGQPREPQVCTLPPSRDELTKNQVSLWCLVKGFYPSDIAVEWESNGQPENNYKTTPPVLDSDGSFFLYSKLTVDKSRWQQGNVFSCSVMHEALHNRYTQKSLSLSP light: DIVMTQSPLSLPVTPGEPASISCRSSQSLVHSERNTYLHWYQQKPGQAPRLLIYKVSNRFSGVPDRFSGSGSGTDFTLKISRVEAEDVGVYYCGQGTQVPYTFGQGTKLEIKRTVAAPSVFIFPPSDEQLKSGTASVVCLLNNFYPREAKVQWKVDNALQSGNSQESVTEQDSKDSTYSLSSTLTLSKADYEKHKVYACEVTHQGLSSPVTKSFNRGEC | 0.4
GLS3000 N28G one-arm antibody (H chain CE115HA000) (antibody, human IgG1, kappa, L234A L235A, N297A, name in Kabat numbering, one-arm antibody) heavy: QVQLVESGGGVVQPGRSLRLSCAASGFTFSNAWMHWVRQAPGKGLEWVAQIKAKSNNYATYYAESVKGRFTISRDDSKNSLYLQMNSLKTEDTAVYYCRYVHYGAYYGVDAWGQGTTVTVSSASTKGPSVFPLAPSSKSTSGGTAALGCLVKDYFPEPVTVSWNSGALTSGVHTFPAVLQSSGLYSLSSVVTVPSSSLGTQTYICNVNHKPSNTKVDKKVEPKSCDKTHTCPPCPAPEAAGGPSVFLFPPKPKDTLMISRTPEVTCVVVDVSHEDPEVKFNWYVDGVEVHNAKTKPREEQYASTYRVVSVLTVLHQDWLNGKEYKCKVSNKALPAPIEKTISKAKGQPREPQVYTLPPSRCELTKNQVSLSCAVKGFYPSDIAVEWESNGQPENNYKTTPPVLDSDGSFFLVSKLTVDKSRWQQGNVFSCSVMHEALHNHYTQKSLSLSPDYKDDDDK EPKSSDKTHTCPPCPAPELLGGPSVFLFPPKPKDTLMISRTPEVTCVVVDVSHEDPEVKFNWYVDGVEVHNAKTKPREEQYNSTYRVVSVLTVLHQDWLNGKEYKCKVSNKALPAPIEKTISKAKGQPREPQVCTLPPSRDELTKNQVSLWCLVKGFYPSDIAVEWESNGQPENNYKTTPPVLDSDGSFFLYSKLTVDKSRWQQGNVFSCSVMHEALHNRYTQKSLSLSP light: DIVMTQSPLSLPVTPGEPASISCRSSQSLVHSGRNTYLHWYQQKPGQAPRLLIYKVSNRFSGVPDRFSGSGSGTDFTLKISRVEAEDVGVYYCGQGTQVPYTFGQGTKLEIKRTVAAPSVFIFPPSDEQLKSGTASVVCLLNNFYPREAKVQWKVDNALQSGNSQESVTEQDSKDSTYSLSSTLTLSKADYEKHKVYACEVTHQGLSSPVTKSFNRGEC | 0.46
GLS3000 N28K one-arm antibody (H chain CE115HA000) (antibody, human IgG1, kappa, L234A L235A, N297A, name in Kabat numbering, one-arm antibody) heavy: QVQLVESGGGVVQPGRSLRLSCAASGFTFSNAWMHWVRQAPGKGLEWVAQIKAKSNNYATYYAESVKGRFTISRDDSKNSLYLQMNSLKTEDTAVYYCRYVHYGAYYGVDAWGQGTTVTVSSASTKGPSVFPLAPSSKSTSGGTAALGCLVKDYFPEPVTVSWNSGALTSGVHTFPAVLQSSGLYSLSSVVTVPSSSLGTQTYICNVNHKPSNTKVDKKVEPKSCDKTHTCPPCPAPEAAGGPSVFLFPPKPKDTLMISRTPEVTCVVVDVSHEDPEVKFNWYVDGVEVHNAKTKPREEQYASTYRVVSVLTVLHQDWLNGKEYKCKVSNKALPAPIEKTISKAKGQPREPQVYTLPPSRCELTKNQVSLSCAVKGFYPSDIAVEWESNGQPENNYKTTPPVLDSDGSFFLVSKLTVDKSRWQQGNVFSCSVMHEALHNHYTQKSLSLSPDYKDDDDK EPKSSDKTHTCPPCPAPELLGGPSVFLFPPKPKDTLMISRTPEVTCVVVDVSHEDPEVKFNWYVDGVEVHNAKTKPREEQYNSTYRVVSVLTVLHQDWLNGKEYKCKVSNKALPAPIEKTISKAKGQPREPQVCTLPPSRDELTKNQVSLWCLVKGFYPSDIAVEWESNGQPENNYKTTPPVLDSDGSFFLYSKLTVDKSRWQQGNVFSCSVMHEALHNRYTQKSLSLSP light: DIVMTQSPLSLPVTPGEPASISCRSSQSLVHSKRNTYLHWYQQKPGQAPRLLIYKVSNRFSGVPDRFSGSGSGTDFTLKISRVEAEDVGVYYCGQGTQVPYTFGQGTKLEIKRTVAAPSVFIFPPSDEQLKSGTASVVCLLNNFYPREAKVQWKVDNALQSGNSQESVTEQDSKDSTYSLSSTLTLSKADYEKHKVYACEVTHQGLSSPVTKSFNRGEC | 0.44
GLS3000 N28F one-arm antibody (H chain CE115HA000) (antibody, human IgG1, kappa, L234A L235A, N297A, name in Kabat numbering, one-arm antibody) heavy: QVQLVESGGGVVQPGRSLRLSCAASGFTFSNAWMHWVRQAPGKGLEWVAQIKAKSNNYATYYAESVKGRFTISRDDSKNSLYLQMNSLKTEDTAVYYCRYVHYGAYYGVDAWGQGTTVTVSSASTKGPSVFPLAPSSKSTSGGTAALGCLVKDYFPEPVTVSWNSGALTSGVHTFPAVLQSSGLYSLSSVVTVPSSSLGTQTYICNVNHKPSNTKVDKKVEPKSCDKTHTCPPCPAPEAAGGPSVFLFPPKPKDTLMISRTPEVTCVVVDVSHEDPEVKFNWYVDGVEVHNAKTKPREEQYASTYRVVSVLTVLHQDWLNGKEYKCKVSNKALPAPIEKTISKAKGQPREPQVYTLPPSRCELTKNQVSLSCAVKGFYPSDIAVEWESNGQPENNYKTTPPVLDSDGSFFLVSKLTVDKSRWQQGNVFSCSVMHEALHNHYTQKSLSLSPDYKDDDDK EPKSSDKTHTCPPCPAPELLGGPSVFLFPPKPKDTLMISRTPEVTCVVVDVSHEDPEVKFNWYVDGVEVHNAKTKPREEQYNSTYRVVSVLTVLHQDWLNGKEYKCKVSNKALPAPIEKTISKAKGQPREPQVCTLPPSRDELTKNQVSLWCLVKGFYPSDIAVEWESNGQPENNYKTTPPVLDSDGSFFLYSKLTVDKSRWQQGNVFSCSVMHEALHNRYTQKSLSLSP light: DIVMTQSPLSLPVTPGEPASISCRSSQSLVHSFRNTYLHWYQQKPGQAPRLLIYKVSNRFSGVPDRFSGSGSGTDFTLKISRVEAEDVGVYYCGQGTQVPYTFGQGTKLEIKRTVAAPSVFIFPPSDEQLKSGTASVVCLLNNFYPREAKVQWKVDNALQSGNSQESVTEQDSKDSTYSLSSTLTLSKADYEKHKVYACEVTHQGLSSPVTKSFNRGEC | 0.46
GLS3000 N28I one-arm antibody (H chain CE115HA000) (antibody, human IgG1, kappa, L234A L235A, N297A, name in Kabat numbering, one-arm antibody) heavy: QVQLVESGGGVVQPGRSLRLSCAASGFTFSNAWMHWVRQAPGKGLEWVAQIKAKSNNYATYYAESVKGRFTISRDDSKNSLYLQMNSLKTEDTAVYYCRYVHYGAYYGVDAWGQGTTVTVSSASTKGPSVFPLAPSSKSTSGGTAALGCLVKDYFPEPVTVSWNSGALTSGVHTFPAVLQSSGLYSLSSVVTVPSSSLGTQTYICNVNHKPSNTKVDKKVEPKSCDKTHTCPPCPAPEAAGGPSVFLFPPKPKDTLMISRTPEVTCVVVDVSHEDPEVKFNWYVDGVEVHNAKTKPREEQYASTYRVVSVLTVLHQDWLNGKEYKCKVSNKALPAPIEKTISKAKGQPREPQVYTLPPSRCELTKNQVSLSCAVKGFYPSDIAVEWESNGQPENNYKTTPPVLDSDGSFFLVSKLTVDKSRWQQGNVFSCSVMHEALHNHYTQKSLSLSPDYKDDDDK EPKSSDKTHTCPPCPAPELLGGPSVFLFPPKPKDTLMISRTPEVTCVVVDVSHEDPEVKFNWYVDGVEVHNAKTKPREEQYNSTYRVVSVLTVLHQDWLNGKEYKCKVSNKALPAPIEKTISKAKGQPREPQVCTLPPSRDELTKNQVSLWCLVKGFYPSDIAVEWESNGQPENNYKTTPPVLDSDGSFFLYSKLTVDKSRWQQGNVFSCSVMHEALHNRYTQKSLSLSP light: DIVMTQSPLSLPVTPGEPASISCRSSQSLVHSIRNTYLHWYQQKPGQAPRLLIYKVSNRFSGVPDRFSGSGSGTDFTLKISRVEAEDVGVYYCGQGTQVPYTFGQGTKLEIKRTVAAPSVFIFPPSDEQLKSGTASVVCLLNNFYPREAKVQWKVDNALQSGNSQESVTEQDSKDSTYSLSSTLTLSKADYEKHKVYACEVTHQGLSSPVTKSFNRGEC | 0.44
GLS3000 N28H one-arm antibody (H chain CE115HA000) (antibody, human IgG1, kappa, L234A L235A, N297A, name in Kabat numbering, one-arm antibody) heavy: QVQLVESGGGVVQPGRSLRLSCAASGFTFSNAWMHWVRQAPGKGLEWVAQIKAKSNNYATYYAESVKGRFTISRDDSKNSLYLQMNSLKTEDTAVYYCRYVHYGAYYGVDAWGQGTTVTVSSASTKGPSVFPLAPSSKSTSGGTAALGCLVKDYFPEPVTVSWNSGALTSGVHTFPAVLQSSGLYSLSSVVTVPSSSLGTQTYICNVNHKPSNTKVDKKVEPKSCDKTHTCPPCPAPEAAGGPSVFLFPPKPKDTLMISRTPEVTCVVVDVSHEDPEVKFNWYVDGVEVHNAKTKPREEQYASTYRVVSVLTVLHQDWLNGKEYKCKVSNKALPAPIEKTISKAKGQPREPQVYTLPPSRCELTKNQVSLSCAVKGFYPSDIAVEWESNGQPENNYKTTPPVLDSDGSFFLVSKLTVDKSRWQQGNVFSCSVMHEALHNHYTQKSLSLSPDYKDDDDK EPKSSDKTHTCPPCPAPELLGGPSVFLFPPKPKDTLMISRTPEVTCVVVDVSHEDPEVKFNWYVDGVEVHNAKTKPREEQYNSTYRVVSVLTVLHQDWLNGKEYKCKVSNKALPAPIEKTISKAKGQPREPQVCTLPPSRDELTKNQVSLWCLVKGFYPSDIAVEWESNGQPENNYKTTPPVLDSDGSFFLYSKLTVDKSRWQQGNVFSCSVMHEALHNRYTQKSLSLSP light: DIVMTQSPLSLPVTPGEPASISCRSSQSLVHSHRNTYLHWYQQKPGQAPRLLIYKVSNRFSGVPDRFSGSGSGTDFTLKISRVEAEDVGVYYCGQGTQVPYTFGQGTKLEIKRTVAAPSVFIFPPSDEQLKSGTASVVCLLNNFYPREAKVQWKVDNALQSGNSQESVTEQDSKDSTYSLSSTLTLSKADYEKHKVYACEVTHQGLSSPVTKSFNRGEC | 0.42
